Experimental data reported in publication PMC6781444.

Target: 80S ribosome (rabbit (endogenous in reticulocyte lysate))
Test: co-sedimentation

fold reduction of cosedimentation against WT SR [fold] | Substance
> 2 | SRdC, SRαβΔTM with the CBR of SRα (residues 129–176) replaced with (GS)6 (from UniProt P08240;Q9Y5M8) (complex)
> 2 | SRdR, SRαβΔTM with the RBR of SRα (residues 205–250) replaced with (GS)6 (from UniProt P08240;Q9Y5M8) (complex)
